Assay [1] has as its target human CD16A-mFc (158F) (sAg_107) (human) (UniProt P08637). In words: ELISA, plate coated with human CD16A-mFc (158F) (sAg_107), one-site fit, mean of 3. For orientation: In an ELISA, binding on a coated surface is turned into a signal by an enzyme label.
The target in assay [2] is human CD16A-mFc (158V) (sAg_149) (human) (UniProt P08637). Description: ELISA, plate coated with human CD16A-mFc (158V), anti-mouse HRP detection, A450.
The target in assay [3] is human CD16A-mFc (158F) (sAg_107) (human) (UniProt P08637). In words: ELISA, plate coated with human CD16A-mFc (158F), anti-mouse HRP detection, A450.
Sequence of human CD16A-mFc (158F) (sAg_107) (human) (P08637 17-208 limits assumed): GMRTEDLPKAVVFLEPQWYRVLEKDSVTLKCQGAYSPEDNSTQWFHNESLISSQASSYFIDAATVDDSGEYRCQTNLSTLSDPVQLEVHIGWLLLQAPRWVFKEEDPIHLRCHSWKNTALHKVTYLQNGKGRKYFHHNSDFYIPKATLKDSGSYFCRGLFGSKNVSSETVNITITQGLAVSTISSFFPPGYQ
In assay [4] the target is CD16A endogenously expressed on primary human NK cells (human) (UniProt P08637). In words: flow cytometry on primary human NK cells, biotinylated antibody, 37 C, without IgG, mean of 4. (In general: Flow cytometry measures light scatter and fluorescence of single cells or particles in a stream.)
Sequence of CD16A endogenously expressed on primary human NK cells (human) (P08637 17-254 limits assumed): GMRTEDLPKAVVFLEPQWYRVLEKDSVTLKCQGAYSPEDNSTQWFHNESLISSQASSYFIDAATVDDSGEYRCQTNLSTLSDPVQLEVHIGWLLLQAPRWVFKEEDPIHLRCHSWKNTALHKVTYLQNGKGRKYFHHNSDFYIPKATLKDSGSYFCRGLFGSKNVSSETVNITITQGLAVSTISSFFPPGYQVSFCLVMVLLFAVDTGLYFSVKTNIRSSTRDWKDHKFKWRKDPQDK
Assay [5] has the same target. In words: flow cytometry on primary human NK cells, biotinylated antibody, 37 C, with 10 mg/mL polyclonal human IgG as competitor, mean of 4.
Assay [6] shares this target. Description: flow cytometry on primary human NK cells at 37 °C, biotinylated antibody, streptavidin-FITC, without polyclonal human IgG.

Sequence of human CD16A-mFc (158V) (sAg_149) (human) (P08637 17-208 F176V limits assumed): as the sequence (P08637 17-208 limits assumed) above, with F160V counted along it

With anti-human CD16 antibody clone 3G8, the Kd amounted to 20 pM in assay [1], 300 pM in assay [4] and 54600 pM in assay [5]. For the same substance, the results for the EC50 (read off the curve) in assay [2], in assay [3] and in assay [6] were 200 pM, 30 pM and 300 pM, respectively.

In general, Kd refers to the equilibrium constant for the complex coming apart. Read a low Kd as higher affinity. In general, EC50 (read off the curve) refers to the concentration that produces a half-maximal response. The low end stands for an effect from little substance, the high end for a need for much substance.

The values above are taken from patent US20240417475A1.
